Measurements from PMC2721272 (Journal of molecular biology, 2009).

Target: the molecule itself
Test: crystal structure

B1: Marasmius oreades agglutinin (natural protein, UniProt Q8X123 1-293, looked up)
chain: MSLRRGIYHIENAGVPSAIDLKDGSSSDGTPIVGWQFTPDTINWHQLWLAEPIPNVADTFTLCNLFSGTYMDLYNGSSEAGTAVNGWQGTAFTTNPHQLWTIKKSSDGTSYKIQNYGSKTFVDLVNGDSSDGAKIAGWTGTWDEGNPHQKWYFNRMSVSSAEAQAAIARNPHIHGTYRGYILDGEYLVLPNATFTQIWKDSGLPGSKWREQIYDCDDFAIAMKAAVGKWGADSWKANGFAIFCGVMLGVNKAGDAAHAYNFTLTKDHADIVFFEPQNGGYLNDIGYDSYMAFY
modifications: side chain of Cys215 oxidized in about 50% of the molecules in the crystal
stoichiometry N: 2
